The values that follow come from the nanobody polyreactivity screen of Harvey et al. (2022).

The data set in a line: yeast display, Sf9 membrane polyspecificity reagent, FACS + sequencing; frameworks hold sequencing errors. The method, boiled down:
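A nanobody's polyreactivity label depends on the gate it was sorted from. Yeast display cells were stained with 10% biotinylated, detergent-solubilized Sf9 membrane reagent for 1 hour at 4 °C, enriched on streptavidin microbeads and sorted by FACS. The low and high (top ~1%) gates were set on anti-HA fluorescence for expression and streptavidin fluorescence for reagent binding.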
“QVQLVESGGGLVQAGGSLRLSCAASGITFYDYTMGWYRQAPGKERELVAAISSRGGSTYYADSVKGRFTISRDNAKNTVYLQMNSLKPEDTAVYYCNADYIYSFYWSFYEYDYWGQGTQVTVSS”: the “polyreactivity (PSR sort gate)” value is on record as “high polyreactivity”. Under “QVQLVESGGGLVQAGGSLRLSCAASGITFYEYDMGWYRQAPGKERELVAAITSRGGSTYYADSVKGRFTISRDNAKNTVYLQMNSLKPEDTAVYYCNAVRGWLYVFSYPYWDDEYWGQGTQVTVSS” stands “high polyreactivity”; under “QVQLVESGGGLVQAGGSLRLSCAASGITFYGNAMGWYRQAPGKERELVAAINWGGTGTYYADSVKGRFTISRDNAKNTVYLQMNSLKPEDTAVYYCAAEVYTWGQGTQVTVSS”, “low polyreactivity”. To “QVQLVESGGGLVQAGGSLRLSCAASGITFYGYAMGWYRQAPGKERELVASISYGGGSTYYADSVKGRFTISRDNAKNTVYFQLNSLKPEDTAVYYCAAQAATYYSGYYYWGQGTQVTVSS” belongs “high polyreactivity”; to “QVQLVESGGGLVQAGGSLRLSCAASGITFYGYTMGWYRQAPGKERELVATITRGGSTYYADSVKGRFTISRDNAKNSVYLQMNSLKPEDTAVYYCAADLKGNYYLGIARYVLYYWGQGTQVTVSS”, “low polyreactivity”; to “QVQLVESGGGLVQAGGSLRLSCAASGITFYIKAMGWYRQAPGKERELVAVIDSRGSSTFYADSVKGRFTISRDNAKNTVYLQMNSLKPEDTAVYYCAVEGYPGRYRDPGDLYYYWGQGTQVTLSS”, “low polyreactivity”. Consider “QVQLVESGGGLVQAGGSLRLSCAASGITFYINAMGWYRQAPAKERELVAVIDSRGSSTFYADSVKGRFTISRDNAKNTVYLLMNSLKPEDTAVYYCAVEGYPGRYRDPGDLYYYWGQGTQVTLSS”, for which the “polyreactivity (PSR sort gate)” value was “low polyreactivity”.

With “QVQLVESGGGLVQAGGSLRLSCAASGITFYKYAMGWYRQAPGKERELVASISNGGNTNYADSVKGRFTISSDNAKNTVYLQMNSLKPEDTAVYYCAAGRQWYSYYRNDYWGQGTQVTVSS”, the “polyreactivity (PSR sort gate)” value is “high polyreactivity”. Under “QVQLVESGGGLVQAGGSLRLSCAASGITFYKYVMGWYRQAPGKEREFVAAITWSGDSTYADSVKGRFTISRDNAKNTVYLQMNSLKPEDTAVYYCAARTWSRRQREYDYWGQGTQVTVSS” stands “high polyreactivity”. Under “QVQLVESGGGLVQAGGSLRLSCAASGITFYLNAMGWYRQAPGKDRELVADITVSGGSTYYADSVKGRFTISRDNAKNTVYLQMNSLKPEDTAVYYCAADLTISYSQEYYYWGQGTQVTLSS” stands “low polyreactivity”; under “QVQLVESGGGLVQAGGSLRLSCAASGITFYLYTMGWYRQAPGKERELVAAISWRGGGTYYADSVKGRFTISRDNAKNTVYLQMNSLKPEDTAVYYCATVRTYARNDYWGQGTQVTVSS”, “high polyreactivity”.

Consider “QVQLVESGGGLVQAGGSLRLSCAASGITFYPNGMGWYRQAPGKEREFVAAISSSGGSTYYADSVKGRFTISRDNAKNSVYLQMNSLKPEDTAVYYCAAQYYAMSYYGYGYWGQGTQVTVSS”, for which the “polyreactivity (PSR sort gate)” value is “low polyreactivity”.

Turning to “QVQLVESGGGLVQAGGSLRLSCAASGITFYRNAMGWYRQAPGKERELVATITRGGSTYYADSVKGRFTISRDNAKNTVYLQMNSLKPEDTAVYYCNRAGGYRTTFYSWGQGTQVTVSS”, the “polyreactivity (PSR sort gate)” value was “high polyreactivity”. To “QVQLVESGGGLVQAGGSLRLSCAASGITFYRYALGWYRQAPGKERELVAAISSSGGSTYYADSVKGRFTISRDNAKNTVYLQMNRLKPEDTAVYYCNAYYSVEYYYWGQGTQVTVSS” belongs “high polyreactivity”. To “QVQLVESGGGLVQAGGSLRLSCAASGITFYRYAMGWYRPAPGKERELVAAISSRGGRTYYADSVKGRFTISRDNEKNTVYLQMNSLKPEDTGVYYCAKGGIVGSTLEYDYWGQGTQVTVSS” belongs “high polyreactivity”.

As for “QVQLVESGGGLVQAGGSLRLSCAASGITFYRYAMGWYRQAPGKERELVAAISWSGGSTYYADSVKGRFTFSRDNAKNTVYLQMNSLKPEDTAVYYCNKYIRYPFKRYGYWGQGTQVTLSS”, the “polyreactivity (PSR sort gate)” value is listed as “high polyreactivity”. Take “QVQLVESGGGLVQAGGSLRLSCAASGITFYRYAMGWYRQAPGKERELVAAITGSGDSTYYADSVKGRFTISRDNAKNTVYLQMNSLKPEDTAVYYCNTDYGRRYDYWGQGTQVTVSS”: the “polyreactivity (PSR sort gate)” value is “high polyreactivity”. Under “QVQLVESGGGLVQAGGSLRLSCAASGITFYRYAMGWYRQAPGKERELVAAITRSVGRTYYADSVKGRFTISRDNAKNTVYLQMNSLKPEDTAVYYCAADSPYYRGDYYWGLGTQVTVSS” stands “high polyreactivity”; under “QVQLVESGGGLVQAGGSLRLSCAASGITFYRYVMGWYRQAPAKERELVAAITTGDSTSYADSVKGRFTISRDNAKNTVYLQMNSLKPEDTAVYYCAAVYYTALANYDYWGQGTQVTVSS”, “low polyreactivity”. As to “QVQLVESGGGLVQAGGSLRLSCAASGITFYSYAMGWYRQAPGKERELVAAITRGGSTYYADSVKGRFTISRDNAKNTVYLQMNSLKPEDTAVYYCAASPLGGYGYWGQGTQVTVSS”, the “polyreactivity (PSR sort gate)” value is recorded as “high polyreactivity”. For “QVQLVESGGGLVQAGGSLRLSCAASGITFYVNAMGWYRQAPGKERELVAGIDSGGSTYYADSVKGRFTISRDNAKNTVYLQMNSLKPEDTAVYYCAARGSDYIRWYVGGRYGYWGQGTQVTVSS”, the “polyreactivity (PSR sort gate)” value is reported as “low polyreactivity”. To “QVQLVESGGGLVQAGGSLRLSCAASGITFYVNAMGWYRQAPGKERELVAVITFGGGSTYYADSVKGRFTISRDNAKNTVYLQMNSLKPEDTAVYYCAKDPTYSPYLPGPIFYYKEDYWGQGTQVTVSS” belongs “low polyreactivity”; to “QVQLVESGGGLVQAGGSLRLSCAASGITFYVYAMGWYIPAPGKERELVAAINYDSGSTYYADSVKGRFTISRDNAKNTVYLQMNSLKPEDTAVYYCATDGVNPFYAYDYWGQGTQVTVSS”, “low polyreactivity”. Under “QVQLVESGGGLVQAGGSLRLSCAASGITFYVYAMGWYRQAPGKERELVAAISSGSSTYYADSVKGRFTISRDNAKNTVYLQMNSLKPEDTAVYYCAARYRKYLSEYWGQGTQVTVSS” stands “high polyreactivity”; under “QVQLVESGGGLVQAGGSLRLSCAASGITFYVYAMGWYRQAPGKERELVAAISSGSSTYYSDSVKGRFTISRDNAKNTVYLQMNSLKPEDTAVYYCAARYRKYLSEYWGQGTQVTVSS”, “high polyreactivity”; under “QVQLVESGGGLVQAGGSLRLSCAASGITFYWYAMGWYRQAPGKERELVASITGNGGGTSYADSVKGRFTISRDNAKNTVYLQMNSLKPEDTAVYYCNTSVGGKEYDSWGQGTQVTVSS”, “low polyreactivity”.

“QVQLVESGGGLVQAGGSLRLSCAASGITFYYYAMGWYRQAPGKERELVAAISFRGGSTYYADSVKGRFTISRDNAKNTVYLQMNSLKPEDTAVYYCAAETSPSWYTWVTYDYWGQGTKVTVSS”: the “polyreactivity (PSR sort gate)” value was “high polyreactivity”.

“QVQLVESGGGLVQAGGSLRLSCAASGITIGRNTMGWSRQAPRKERELVAAIDSGGNTYADSVKGRFSISRDNAMNTVYLQMNSLKPEDTAVYYCAVDGGEFSSYGFWGQGTQVTVSS”: the “polyreactivity (PSR sort gate)” value was “low polyreactivity”. On to “QVQLVESGGGLVQAGGSLRLSCAASGITINGYVMGWYRQAPGKERELVAAITSGARTYYADSVKGRFTISRDNAKNTVYLQMNSLKPEDTAVYYCAASIWLYRYYYWGQGTQVTVSS”, for which the “polyreactivity (PSR sort gate)” value is “high polyreactivity”. To “QVQLVESGGGLVQAGGSLRLSCAASGITIVNYVMGWYRQAPGKERELVAAISIGGGTYYADSVKGRFTISRDNAKNTVYLQINSLKPEDTAVYYCNASYGGLSFYIGVYVTGYDYWGQGTQVTVSS” belongs “low polyreactivity”.
